From publication PMC2811759 (Biochemistry, 2010)

Target: T1, Xeroderma Pigmentosum group C (XPC) (human, UniProt Q01831 1-940)
T1 sequence (looked up): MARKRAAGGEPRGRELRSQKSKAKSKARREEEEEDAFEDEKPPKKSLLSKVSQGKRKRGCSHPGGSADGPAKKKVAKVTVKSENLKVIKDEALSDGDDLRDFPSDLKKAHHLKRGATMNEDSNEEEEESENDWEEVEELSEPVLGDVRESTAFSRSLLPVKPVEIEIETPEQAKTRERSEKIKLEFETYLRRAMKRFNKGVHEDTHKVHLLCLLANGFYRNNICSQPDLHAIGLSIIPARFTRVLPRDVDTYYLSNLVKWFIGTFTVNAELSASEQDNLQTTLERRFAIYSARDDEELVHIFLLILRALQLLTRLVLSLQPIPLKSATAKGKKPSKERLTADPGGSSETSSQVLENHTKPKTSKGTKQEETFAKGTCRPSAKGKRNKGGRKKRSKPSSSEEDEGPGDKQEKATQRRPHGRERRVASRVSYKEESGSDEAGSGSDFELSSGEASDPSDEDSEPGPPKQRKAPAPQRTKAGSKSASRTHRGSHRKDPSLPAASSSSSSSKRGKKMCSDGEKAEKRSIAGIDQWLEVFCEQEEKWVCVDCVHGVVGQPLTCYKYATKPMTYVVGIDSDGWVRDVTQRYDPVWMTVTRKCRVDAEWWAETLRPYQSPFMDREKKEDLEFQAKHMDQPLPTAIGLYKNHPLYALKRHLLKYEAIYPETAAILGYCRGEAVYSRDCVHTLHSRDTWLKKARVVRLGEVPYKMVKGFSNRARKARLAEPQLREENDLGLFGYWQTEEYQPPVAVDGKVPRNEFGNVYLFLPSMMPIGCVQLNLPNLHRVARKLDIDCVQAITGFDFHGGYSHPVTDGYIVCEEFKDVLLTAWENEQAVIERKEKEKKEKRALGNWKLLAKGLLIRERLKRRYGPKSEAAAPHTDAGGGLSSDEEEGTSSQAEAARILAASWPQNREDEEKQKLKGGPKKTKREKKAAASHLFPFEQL
Experiment: co-IP

binding result: binds
B1: Rad23B (natural protein, human, UniProt P54727 1-409, looked up)
chain: MQVTLKTLQQQTFKIDIDPEETVKALKEKIESEKGKDAFPVAGQKLIYAGKILNDDTALKEYKIDEKNFVVVMVTKPKAVSTPAPATTQQSAPASTTAVTSSTTTTVAQAPTPVPALAPTSTPASITPASATASSEPAPASAAKQEKPAEKPAETPVATSPTATDSTSGDSSRSNLFEDATSALVTGQSYENMVTEIMSMGYEREQVIAALRASFNNPDRAVEYLLMGIPGDRESQAVVDPPQAASTGAPQSSAVAAAAATTTATTTTTSSGGHPLEFLRNQPQFQQMRQIIQQNPSLLPALLQQIGRENPQLLQQISQHQEHFIQMLNEPVQEAGGQGGGGGGGSGGIAEAGSGHMNYIQVTPQEKEAIERLKALGFPEGLVIQAYFACEKNENLAANFLLQQNFDED
